Results published in patent publication US6942981.
Ends that are not written are not given here. * marks the point of attachment. Biotin = O=C1N[C@H]2[C@H](CS[C@H]2CCCCC(=O)*)N1

Experiments:
Assay in all cases: A/G assays
[1] = target: T1, GST-RGS12 PDZ domain fusion protein (human, UniProt O14924 17-85)
T1 construct: also called human regulator of G-protein signalling 12; not shown: glutathione S-transferase (GST) encoded by pGEX-3X
T1 sequence: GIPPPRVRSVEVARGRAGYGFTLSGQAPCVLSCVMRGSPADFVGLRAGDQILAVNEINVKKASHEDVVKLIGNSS

[2] = target: T2, GST-TIAM1 PDZ domain fusion protein (Homo sapiens (Human), UniProt Q13009 845-932)
T2 construct: also called T-lymphoma invasion and metastasis inducing protein 1; not shown: glutathione S-transferase (GST) encoded by pGEX-3X

[3] = target: T3, GST-AF6 PDZ domain fusion protein (Homo sapiens (Human), UniProt P55196 1001-1093)
T3 construct: also called af-6 protein; not shown: glutathione S-transferase (GST) encoded by pGEX-3X
T3 sequence: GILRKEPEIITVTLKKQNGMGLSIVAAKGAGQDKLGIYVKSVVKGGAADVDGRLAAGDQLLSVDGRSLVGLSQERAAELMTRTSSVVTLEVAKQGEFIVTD

[4] = target: T4, GST-DVL1 PDZ domain fusion protein (human)
T4 construct: also called human dishevelled segment polarity protein homolog; not shown: glutathione S-transferase (GST) encoded by pGEX-3X
T4 chain: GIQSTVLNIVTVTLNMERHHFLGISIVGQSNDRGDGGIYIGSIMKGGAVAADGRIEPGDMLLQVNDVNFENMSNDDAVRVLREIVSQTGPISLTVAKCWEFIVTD

[5] = target: T5, GST-TAX2 PDZ domain fusion protein (human, UniProt O14908 129-216)
T5 construct: not shown: glutathione S-transferase (GST) encoded by pGEX-3X
T5 chain: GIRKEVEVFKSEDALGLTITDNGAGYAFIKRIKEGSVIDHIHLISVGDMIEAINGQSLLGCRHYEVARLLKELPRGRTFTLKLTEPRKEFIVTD

[6] = target: T6, GST-LIMK2 PDZ domain fusion protein (human, UniProt P53671 147-237)
T6 construct: also called human LIM domain kinase 2; not shown: glutathione S-transferase (GST) encoded by pGEX-3X
T6 sequence: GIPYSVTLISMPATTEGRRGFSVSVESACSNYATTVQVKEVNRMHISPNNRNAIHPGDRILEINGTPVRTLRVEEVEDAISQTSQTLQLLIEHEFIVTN

[7] = target: T7, GST-PTN-4 PDZ domain fusion protein (Homo sapiens (Human), UniProt P29074 517-605)
T7 construct: also called protein-tyrosine phosphatase meg1; not shown: glutathione S-transferase (GST) encoded by pGEX-3X
T7 sequence: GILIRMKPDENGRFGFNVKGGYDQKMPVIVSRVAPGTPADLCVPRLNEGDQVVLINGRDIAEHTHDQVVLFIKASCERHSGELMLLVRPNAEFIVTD

[8] = target: T8, GST-TAX33 PDZ domain fusion protein (Homo sapiens (Human), UniProt O14910 103-194)
T8 construct: not shown: glutathione S-transferase (GST) encoded by pGEX-3X
T8 sequence: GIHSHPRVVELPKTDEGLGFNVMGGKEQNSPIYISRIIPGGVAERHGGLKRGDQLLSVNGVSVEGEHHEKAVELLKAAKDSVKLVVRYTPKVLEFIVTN

[9] = target: T9, GST-LIM (Human LIM protein) PDZ domain fusion protein (human, UniProt Q96HC4 2-85)
T9 construct: not shown: glutathione S-transferase (GST) encoded by pGEX-3X
T9 sequence: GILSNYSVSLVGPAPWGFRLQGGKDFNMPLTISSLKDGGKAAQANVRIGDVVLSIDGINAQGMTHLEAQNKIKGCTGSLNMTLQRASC

[10] = target: T10, GST-TAX43 PDZ domain fusion protein (human, UniProt Q13884 109-180)
T10 construct: not shown: glutathione S-transferase (GST) encoded by pGEX-3X
T10 sequence: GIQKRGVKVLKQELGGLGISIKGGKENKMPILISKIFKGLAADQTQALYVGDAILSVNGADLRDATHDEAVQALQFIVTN

[11] = target: T11, GST-KIAA0303 PDZ domain fusion protein (Homo sapiens (Human), UniProt O15021 1138-1229)
T11 construct: also called K303; not shown: glutathione S-transferase (GST) encoded by pGEX-3X
T11 sequence: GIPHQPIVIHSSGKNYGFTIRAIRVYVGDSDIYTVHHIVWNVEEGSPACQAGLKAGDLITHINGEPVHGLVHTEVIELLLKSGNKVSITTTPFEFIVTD

[12] = target: T12, GST-TAX40 PDZ domain fusion protein (human, UniProt Q6B4M5 150-251 (rat entry))
T12 construct: not shown: glutathione S-transferase (GST) encoded by pGEX-3X
T12 sequence: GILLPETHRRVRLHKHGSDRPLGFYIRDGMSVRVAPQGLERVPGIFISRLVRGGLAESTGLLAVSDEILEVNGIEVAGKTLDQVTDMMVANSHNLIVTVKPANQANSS

[13] = target: T13, GST-CASK PDZ domain fusion protein (mouse, UniProt O14936 485-575 (human entry))
T13 sequence: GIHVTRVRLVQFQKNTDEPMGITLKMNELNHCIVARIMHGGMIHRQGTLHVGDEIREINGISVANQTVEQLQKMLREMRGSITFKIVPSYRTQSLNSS

[14] = target: T14, GST-KIAA0559 PDZ domain fusion protein (Homo sapiens (Human), UniProt Q9Y6V0 4489-4594)
T14 construct: also called K559; not shown: glutathione S-transferase (GST) encoded by pGEX-3X
T14 sequence: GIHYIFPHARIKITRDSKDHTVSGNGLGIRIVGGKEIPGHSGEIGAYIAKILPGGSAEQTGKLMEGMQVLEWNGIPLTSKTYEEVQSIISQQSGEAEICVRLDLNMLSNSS

[15] = target: T15, GST-MINT3 PDZ domain fusion protein (human)
T15 construct: also called human MINT3; not shown: glutathione S-transferase (GST) encoded by pGEX-3X
T15 chain: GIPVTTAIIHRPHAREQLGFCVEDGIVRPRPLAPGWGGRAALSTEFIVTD

[16] = target: T16, GST-MPP1 PDZ domain fusion protein (Homo sapiens (Human), UniProt Q00013 67-152)
T16 construct: also called 55 Kd erythrocyte membrane protein; not shown: glutathione S-transferase (GST) encoded by pGEX-3X
T16 sequence: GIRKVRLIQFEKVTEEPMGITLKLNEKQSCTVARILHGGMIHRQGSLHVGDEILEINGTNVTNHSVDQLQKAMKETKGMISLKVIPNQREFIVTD

Measured: binding result

T2 sequence (Q13009 other isoform, or with tags, fused parts or gaps): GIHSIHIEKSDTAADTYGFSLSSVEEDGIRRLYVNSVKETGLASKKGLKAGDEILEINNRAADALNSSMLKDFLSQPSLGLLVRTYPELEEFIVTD

B1: CD148 peptide AA55L (ending KTIA) (peptide)
peptide: Biotin-TIYENLAPVTTFGKTIA
no binding: all assays above

B2: CD34 C-terminal peptide AA7L (peptide)
peptide: Biotin-QATSRNGHSARQHVVADTEL
no binding: all assays above
